Experimental data reported in publication PMC6032241, “UDP-Glucose 4-Epimerase and β-1,4-Galactosyltransferase from the Oyster Magallana gigas as Valuable Biocatalysts for the Production of Galactosylated Products” (International Journal of Molecular Sciences, 2018).

How the values were obtained:
MgGalT7 = molecular target: T1, MgGalT7 (Magallana gigas, UniProt Z9LX56G651); experiment: coupled galactosylation with MgUGE, HPLC-ESI-MS; assay type: biochemical; conditions: acceptor 10 mM; 15 mM UDP-glucose converted to UDP-galactose by MgUGE, 1 mM MnCl2, 50 mM Tris-HCl pH 8.0, 37 °C, 24 h
T1 sequence (Z9LX56G651 34-312): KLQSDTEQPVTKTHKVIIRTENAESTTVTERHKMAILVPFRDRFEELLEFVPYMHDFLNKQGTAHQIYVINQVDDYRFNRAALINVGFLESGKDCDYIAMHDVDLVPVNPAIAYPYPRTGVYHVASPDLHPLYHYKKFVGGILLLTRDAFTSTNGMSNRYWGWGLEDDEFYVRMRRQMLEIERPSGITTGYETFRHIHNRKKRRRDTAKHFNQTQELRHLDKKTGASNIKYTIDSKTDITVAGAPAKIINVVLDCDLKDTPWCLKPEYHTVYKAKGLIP

purified protein = substrate: O=c1ccn([C@@H]2O[C@H](COP(=O)(O)OP(=O)(O)O[C@H]3O[C@H](CO)[C@H](O)[C@H](O)[C@H]3O)[C@@H](O)[C@H]2O)c(=O)[nH]1; experiment: purified protein; assay type: biochemical, Magallana gigas; conditions: 50 mM Tris-HCl pH 8.0, 22 °C, UDP-galactose 10 µM to 2 mM

Molecule: O=[N+]([O-])c1ccc(O[C@H]2OC[C@@H](O)[C@H](O)[C@H]2O)cc1 [pNP-xylose]
- coupled galactosylation with MgUGE, HPLC-ESI-MS (MgGalT7): (MgGalT7), allowing the galactosylation of the model substrate para-nitrophenol xylose (pNP-xylose)

B1: MgUGE (Magallana gigas) (protein)
chain: MGDSCILVTGGAGFVGSHSVIELIEAGYSVVVMDNLANASMESIKRVEEITGKSIPSYSVDLLDKPALSDLFNKHKFTSVIHFAGLKAVGESCQLPLLYYKNNVGGTVNLLEVMKEKGVKNLIFSSSATVYGSPQYLPIDEKHPVGGCTNPYGKTKYFIEEILRDLHKAEPDWNIIMLRYFNPVGAHKSGKIGEDPQGIPNNLMPFIAQVAVGKRAELSVYGSDYDTPDGTGVRDYIHVVDLAQGHVAAQKKIEKKCGCKVYNLGTGKGYSVIEMAKAFEEASGKPIPFKKVDRRAGDVASVYGNADLAKEELGWSASRDLKQMCEDTWRWQSSNPNGFRK
notes: forward primer encodes N-terminus MGDSCIL
- Km (purified protein): 1600 ± 100 µM
- kcat (purified protein): 2.23 ± 0.2 s⁻¹
